Laboratory results as given in article PMC4919205.

Molecular target: TRPV6_(CysKO) D34C-R631C double mutant (rat) (UniProt Q9R186)
Test: cross-linking

“TRPV6_(CysKO) D34C-R631C double mutant (from UniProt Q9R186 1-668) (natural protein)” showed a stoichiometry N of 4.
